Results on one molecule are retold here after patent US5874272A, “Inosine-guanosine kinase” (Kyowa Hakko Kogyo Co., Ltd., priority 1998, dated 1999).

A short description of data set [1]: Optimum pH and optimum temperature of the enzyme activity. Type of data set: biochemical, Escherichia coli. The note with it: 30° C., 20 minutes; PIPES, HEPES, TAPS, CHES buffers 100 mM. How it is done: The activity of the inosine-guanosine kinase obtained is determined as follows. A reaction solution (hereafter referred to as reaction solution a) having a composition of 100 mM HEPES buffer (pH 7.2), 10 mM MgSO4, 50 mM KCl, 1 mM ATP and 1 mM inosine is brought into contact with the inosine-guanosine […] During the course of reaction, a part of the reaction solution is subjected to sampling intermittently. After the reaction solution is diluted to 1/20 with 0.2M NaH2 PO4 (adjusted the pH to 2.6 with H3 PO4) to stop the reaction, an amount of 5'-IMP in the stopped reaction solution is quantitatively determined by HPLC. Analysis by HPLC is made by using 0.2M NaH2 PO4 (pH 2.6) at a flow rate of 1 ml/min. as an eluting solution and Asahipak GS-320H (manufactured by Asahi Chemical Co., Ltd.) as a column. Detection of components was made by the absorbance at UV absorbance at 254 nm as an index. Quantitative determination was made by comparing absorbancy with that of the standard. […]
In the method for determination of inosine-guanosine kinase activity described above, the activity is determined by varying the temperature of 0° to 50° C. and 31° to 41° C. […]

Substrate in data set [2]: OC[C@H]1O[C@@H](n2cnc3c(O)ncnc32)[C@H](O)[C@@H]1O
In words: Km value determination. Type of data set: biochemical, Escherichia coli. As to conditions: other: 2 mM ATP, 10 mM MgSO4, 300 mM KCl, 0.1M HEPES buffer (pH 7.2).

Substrate in data set [3]: Nc1nc2c(ncn2[C@@H]2O[C@H](CO)[C@@H](O)[C@H]2O)c(=O)[nH]1
In words: Km value determination. Type of data set: biochemical, Escherichia coli. As to conditions: other: 2 mM ATP, 10 mM MgSO4, 300 mM KCl, 0.1M HEPES buffer (pH 7.2).

A short description of data set [4]: pH, temperature and storage stability of the enzyme (residual activity). Type of data set: physicochemical, Escherichia coli. How it is done: This enzyme is treated at 4° C. for 16 hours in an aqueous solution containing 50 mM buffer (CHES; pH 10.0-9.0, TAPS; pH 8.2, HEPES; pH 8.3-7.3 or PIPES; pH 6.6) and 5 mM […] under both conditions in the absence of KCl and in the presence of 250 mM KCl. After the treatment, the activity is determined. Where treated in a pH range of 6.6 to 9.0, the treated enzyme maintains the residual activity of 90% or more than the activity of intact standard enzyme and stably keeps its activity in a pH range of 6.6 to 9.0. The addition of KCl accelerates storage stability.
A reaction solution composed of 20% glycerol, 50 mM Tris-hydrochloride buffer (pH 8), 5 mM β-mercaptoethanol and 100 mM NaCl is contacted with inosine-guanosine kinase in a concentration of about 10 μg protein/ml and treated at a temperature of 26° to 50° C. for 15 minutes to determine the residual activity at each temperature. As the result, since treatment at 40° C. or lower inactivates the enzyme by only 20% or less, the enzyme is stable up to 40° C. In contrast, the activity is rapidly lost by treatment at 50° C.
After 6 g of the -20° C.-stored cells which had been obtained in (6) was suspended in 24 ml of purification buffer [20% glycerol, 50 mM Tris-hydrochloride buffer (pH 8) and 5 mM β-mercaptoethanol], the suspension was disrupted with a homogenizer (manufactured by Brown Biotech Co., Ltd., glass bead diameter of 0.1 mm). The homogenate was centrifuged to give about 20 ml of the supernatant. Protamine sulfate was added to the supernatant in a final concentration of 0.4% followed by centrifugation. Thus high molecular nucleic acid components were removed as precipitates. The resulting supernatant was passed through Sephadex G-50 column which had been previously equilibrated with the purification buffer. The column was eluted with the purification buffer to give about 30 ml of desalted active fraction. After the fraction was passed through DEAE Sepharose column which had been previously equilibrated with the purification buffer, 60 ml of the purification buffer containing 0.1M NaCl was added thereto. Then the desired enzyme was eluted with 200 ml of the purification buffer having an NaCl linear density slope of 0.1M to 0.6M. From the active fractions eluted, 3 ml of the fraction having the highest enzyme concentration was collected. This active fraction was passed through Sephacryl S-200 column and eluted with the purification buffer containing 0.1M NaCl. By gel filtration, the active fraction was collected. Finally 10 ml of purified enzyme (1.4 μg protein/ml) was obtained. This purified enzyme was analyzed by SDS-polyacrylamide electrophoresis but no impurity was detected. The enzyme is stably stored at -20° C. in the purification buffer containing 0.1M NaCl.

B1: inosine-guanosine kinase (Escherichia coli K-12) (protein)
chain: MKFPGKRKSKHYFPVNARDPLLQQFQPENETSAAWVVGIDQTLVDIEAKVDDEFIERYGLSAGHSLVIEDDVAEALYQELKQKNLITHQFAGGTIGNTMHNYSVLADDRSVLLGVMCSNIEIGSYAYRYLCNTSSRTDLNYLQGVDGPIGRCFTLIGESGERTFAISPGHMNQLRAESIPEDVIAGASALVLTSYLVRCKPGEPMPEATMKAIEYAKKYNVPVVLTLGTKFVIAENPQWWQQFLKDHVSILAMNEDEAEALTGESDPLLASDKALDWVDLVLCTAGPIGLYMAGFTEDEAKRKTQHPLLPGAIAEFNQYEFSRAMRHKDCQNPLRVYSHIAPYMGGPEKIMNTNGAGDGALAALLHDITANSYHRSNVPNSSKHKFTWLTYSSLAQVCKYANRVSYQVLNQHSPRLTRGLPEREDSLEESYWDR
notes: made in house; host or cells: Escherichia coli
In general, Km refers to the concentration of substrate that gives half-maximal velocity. B1: the “optimum pH” value in data set [1] was 6.9-8.2. The Km was found to be 2100 µM in “Km value determination [2]” and 6.1 µM in “Km value determination [3]”. Moreover, the “residual activity after pH treatment” value in data set [4] (4° C., 16 hours, pH range of 6.6 to 9.0, with or without 250 mM KCl, versus intact standard enzyme) is at least 90%. Besides, in data set [4] (15 minutes treatment, pH 8), the “temperature up to which the enzyme is stable” value was “up to 40 °C”. The “storage stability (in words)” value in data set [4] (-20° C. in purification buffer containing 0.1M NaCl) is reported as “stably stored”. Also, the “inactivation by heat treatment” value in data set [4] (treatment at 40° C. or lower, 15 minutes, pH 8) is at most 20%. In data set [4] (treatment at 50° C., 15 minutes), the “activity after heat treatment (in words)” value is “rapidly lost”.
